US20260022175A1 (Chugai, published 2026)
Changes are numbered by the printed parent chain. Values belong to the binder of their own block, whether it stands above or below them.

Legend:
[1] = biological target: T1, human FcγRIIa R extracellular domain (human, UniProt P12318 34-217); experiment: SPR Biacore 8K+, antibody captured, FcγR as analyte, 1:1 Langmuir model;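 also: antibodies captured on a streptavidin chip through a biotinylated anti-human Fab kappa reagent, with FcγR extracellular domains injected in pH 7.4 phosphate buffer at 25 °C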
T1 construct: extracellular domain; also called hFcγR IIa R
T1 sequence (looked up): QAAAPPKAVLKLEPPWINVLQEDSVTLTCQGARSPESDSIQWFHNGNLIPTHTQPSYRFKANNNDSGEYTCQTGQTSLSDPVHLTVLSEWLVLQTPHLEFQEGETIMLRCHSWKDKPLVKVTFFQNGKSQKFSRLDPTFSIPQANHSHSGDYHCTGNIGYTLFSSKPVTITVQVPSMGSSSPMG
Method: (§1) The interaction between the produced antibodies and human FcγRs was analyzed using Biacore 8K+ by the method below. For the running buffer, 50 mM Na-Phosphate, 150 mM NaCl, and 0.05% Tween20 (pH 7.4) was used, and measurement was performed at 25° C. The sensor chip used was a Series S SA chip (GE Healthcare) onto which CaptureSelect Human Fab-kappa Kinetics Biotin Conjugate (Thermo Fisher Scientific) was immobilized. An antibody of interest was captured onto this chip, and each FcγR diluted with the running buffer was allowed to interact with it. The chip was regenerated using 10 mM Glycine-HCl (pH 1.5), and repeatedly used to capture antibodies and perform measurement. The dissociation constants KD (mol/L) of each antibody for FcγRs were calculated using Biacore Insight Evaluation Software, with a steady state affinity model for the dissociation constant for FcγRIIb and a 1:1 Langmuir binding model for the dissociation constants for the other FcγRs (Table 48).

[2] = biological target: T2, human FcγRIIa H extracellular domain (human, UniProt P12318 34-217); experiment: as above
T2 construct: extracellular domain; also called hFcγR IIa H
T2 sequence (looked up): T1 sequence (looked up) with R134H
Method: as §1

[3] = biological target: T3, human FcγRIIIa F extracellular domain (human, UniProt P08637 17-208); experiment: as above
T3 construct: extracellular domain; also called hFcγR IIIa F
Method: as §1

[4] = biological target: T4, human FcγRIa extracellular domain (human, UniProt P12314 16-292); experiment: as above
T4 construct: extracellular domain; also called hFcγR Ia; hFcγRIa
Method: as §1

[5] = biological target: T5, human FcγRIIIa V extracellular domain (human, UniProt P08637 17-208); experiment: as above
T5 construct: extracellular domain; also called hFcγR IIIa V
Method: as §1

[6] = biological target: T6, human C1q protein (Calbiochem) (human, UniProt P02745 23-245; P02746 28-253; P02747 29-245); experiment: ELISA: antibody coated on the plate at the varied concentration, hC1q 3 µg/mL added, detected with HRP-conjugated anti-hC1q antibody, O.D (450-690nm)
T6 construct: bought; also called hC1q
Method: The antigen used was a human C1q protein (hC1q).
First, a 96-well maxisorp plate (Thermo fisher) was coated at 4° C. overnight with 50 μL of solutions containing each antibody prepared at 30, 10, 3, 1, 0.3, 0.1, and 0.03 μg/mL in PBS. Each well of the plate was washed with Wash buffer to remove the antibody not bound to the plate, and then the wells were blocked with 200 μL of Blocking/dilution Buffer at room temperature for 2 hours or longer. After the Blocking/dilution Buffer was removed from each well, hC1q (Calbiochem) prepared such that the final concentration was 3 μg/mL in Blocking/dilution Buffer was added at 50 μL per well. The plate was then allowed to stand at room temperature for 1 hour to allow hC1q to bind to the antibody within each well. After washing with Wash Buffer, 50 μL of an HRP-conjugated anti-hC1q antibody (AbDSerotec) diluted with Blocking/dilution Buffer was added to each well, and the plate was incubated while standing for 1 hour. After washing with Wash Buffer, TMB single solution (Invitrogen) was added. The color development reaction of the solution in each well was stopped by addition of Stop Buffer, and then the developed color was measured by absorbance at 450 nm and 690 nm.

[7] = biological target: T7, hFcγRIIaH on hFcγRIIaH-expressing Jurkat cells (human, UniProt P12318 34-317); experiment: cell-based or functional assay
T7 sequence (looked up): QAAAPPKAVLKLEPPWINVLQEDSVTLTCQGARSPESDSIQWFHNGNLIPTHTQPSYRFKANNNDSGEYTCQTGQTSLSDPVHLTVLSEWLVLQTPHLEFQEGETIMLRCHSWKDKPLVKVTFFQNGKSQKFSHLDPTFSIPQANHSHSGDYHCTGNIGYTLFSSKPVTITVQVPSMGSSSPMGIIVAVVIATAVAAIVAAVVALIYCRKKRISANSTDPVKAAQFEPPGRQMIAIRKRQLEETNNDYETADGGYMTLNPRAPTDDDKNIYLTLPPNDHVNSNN

[8] = biological target: T1, human FcγRIIa R extracellular domain; experiment: SPR Biacore 8K+; KD for FcγRIIb divided by KD for this FcγR;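 also: antibodies captured on an anti-human Fab kappa SA chip with soluble human FcγR ectodomains flowed over, FcγRIIb KD from steady-state fit, other FcγR KD from Langmuir model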
[9] = biological target: T2, human FcγRIIa H extracellular domain; experiment: as above
[10] = biological target: T3, human FcγRIIIa F extracellular domain; experiment: as above
[11] = biological target: T5, human FcγRIIIa V extracellular domain; experiment: as above
[12] = biological target: T8, human FcγRIIb extracellular domain (human, UniProt P31994 43-217); experiment: SPR Biacore 8K+; KD of G1d divided by KD of this antibody;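 also: antibodies captured on an anti-Fab-kappa streptavidin chip, soluble FcγR ectodomains flowed over, KD by steady-state fit for FcγRIIb and Langmuir kinetic model for the other receptors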
T8 construct: extracellular domain; also called hFcγR IIb
T8 sequence (looked up): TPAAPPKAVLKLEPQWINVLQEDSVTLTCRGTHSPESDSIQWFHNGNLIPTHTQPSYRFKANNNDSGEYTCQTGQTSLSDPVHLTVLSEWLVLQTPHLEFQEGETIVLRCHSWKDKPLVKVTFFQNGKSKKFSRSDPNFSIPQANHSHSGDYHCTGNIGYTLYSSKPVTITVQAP
Method: as §1

[13] = biological target: T1, human FcγRIIa R extracellular domain; experiment: as above
Method: as §1

[14] = biological target: T2, human FcγRIIa H extracellular domain; experiment: as above
Method: as §1

[15] = biological target: T3, human FcγRIIIa F extracellular domain; experiment: as above
Method: as §1

[16] = biological target: T4, human FcγRIa extracellular domain; experiment: as above
Method: as §1

[17] = biological target: T5, human FcγRIIIa V extracellular domain; experiment: as above
Method: as §1

[18] = biological target: T8, human FcγRIIb extracellular domain; experiment: SPR Biacore 8K+, antibody captured, FcγR as analyte, steady state affinity model
Method: as §1

[19] = biological target: hFcγRIIIaV on hFcγRIIIaV-expressing Jurkat cells (human, UniProt P08637 17-254); experiment: cell-based or functional assay
human CTLA4 [20] = biological target: T9, human CTLA4 (human); experiment: SPR Biacore T200, 37C, antibody captured, no ATP, steady state model
T9 construct: also called hCTLA4; hCTLA4-His-BAP
Method: Biacore T200 was used to measure the binding of the generated antibodies to human CTLA4. 20 mM ACES (pH 7.4), 150 mM NaCl, 2 mM MgCl₂, 0.05% Tween 20 with ATP added to the desired concentration was used as the running buffer, and the assay was performed at 37° C. First, Protein G (CALBIOCHEM) was immobilized onto a Series S Sensor Chip CM3 (GE Healthcare), and the antibodies were captured by interacting an antibody solution prepared in an ATP-free running buffer with the chip. Next, by interacting with a human CTLA4 solution prepared in a running buffer containing ATP to the desired concentration, or a human CTLA4 solution prepared in a running buffer containing no ATP, the binding ability of the antibody to human CTLA4 in the presence or absence of ATP was evaluated. Chips were regenerated with 25 mM NaOH and 10 mM Glycine-HCl (pH 1.5), and assay was performed by repeatedly capturing antibodies. The dissociation constant of each antibody for CTLA4 was calculated using Biacore T200 Evaluation Software 2.0. Specifically, the binding rate constant ka (L/mol/s) and the dissociation rate constant kd (1/s) were calculated by global fitting of the sensorgrams obtained by the measurement, using a 1:1 Langmuir binding model. The dissociation constant KD (mol/L) was calculated from those values. Alternatively, the dissociation constant KD (mol/L) was calculated by the steady state model.

human CTLA4 [21] = biological target: T9, human CTLA4; experiment: SPR Biacore T200, 37C, antibody captured, AMP 10 uM
[22] = biological target: T10, cynomolgus monkey CTLA4 (CyCTLA4-His-BAP) (cynomolgus monkey); experiment: SPR Biacore T200, 37C, antibody captured, ATP 10 uM
Method: (§2) Biacore T200 was used to measure the binding of the generated antibodies to human CTLA4. 20 mM ACES (pH 7.4), 150 mM NaCl, 2 mM MgCl₂, 0.05% Tween 20 with ATP added to the desired concentration was used as the running buffer, and the assay was performed at 37° C. First, Protein G (CALBIOCHEM) was immobilized onto a Series S Sensor Chip CM3 (GE Healthcare), and the antibodies were captured by interacting an antibody solution prepared in an ATP-free running buffer with the chip. Next, by interacting with a human CTLA4 solution prepared in a running buffer containing ATP to the desired concentration, or a human CTLA4 solution prepared in a running buffer containing no ATP, the binding ability of the antibody to human CTLA4 in the presence or absence of ATP was evaluated. Chips were regenerated with 25 mM NaOH and 10 mM Glycine-HCl (pH 1.5), and assay was performed by repeatedly capturing antibodies. The dissociation constant of each antibody for CTLA4 was calculated using Biacore T200 Evaluation Software 2.0. Specifically, the binding rate constant ka (L/mol/s) and the dissociation rate constant kd (1/s) were calculated by global fitting of the sensorgrams obtained by the measurement, using a 1:1 Langmuir binding model. The dissociation constant KD (mol/L) was calculated from those values. Alternatively, the dissociation constant KD (mol/L) was calculated by the steady state model. In addition, the binding amount of CTLA4 per unit amount of antibody was calculated by correcting the amount of CTLA4 bound as calculated from the sensorgram obtained by the assay with the amount of antibody captured onto the chip surface.
(§3) Next, the binding ability of some variants to mouse CTLA4 and cynomolgus monkey CTLA4 was evaluated.

human CTLA4 [23] = biological target: T9, human CTLA4; experiment: as above
Method: as §2, §3

human CTLA4 [24] = biological target: T9, human CTLA4; experiment: as above; remark: listed apart in the source
Method: as §2

[25] = biological target: T10, cynomolgus monkey CTLA4 …; experiment: SPR Biacore T200, 37C, antibody captured, ATP 100 uM
Method: as §2, §3

human CTLA4 [26] = biological target: T9, human CTLA4; experiment: as above
Method: as §2, §3

human CTLA4 [27] = biological target: T9, human CTLA4; experiment: SPR Biacore T200, 37C, antibody captured, ATP 1 uM
Method: as §2

human CTLA4 [28] = biological target: T9, human CTLA4; experiment: SPR Biacore T200, 37C, antibody captured, ATP 10 uM; remark: listed apart in the source
Method: as §2
The binding ability of the generated variants to human CTLA4 in the presence of ADP or AMP was evaluated by Biacore T200 and compared with the binding ability in the presence of ATP.

human CTLA4 [29] = biological target: T9, human CTLA4; experiment: SPR Biacore T200, 37C, antibody captured, ADP 10 uM;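 also: antibodies held on a Protein G CM3 chip, human CTLA4 as analyte in ACES pH 7.4 buffer, rates from a global 1:1 Langmuir fit, Kd from rates or steady state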
[30] = biological target: T10, cynomolgus monkey CTLA4 …; experiment: SPR Biacore T200, 37C, antibody captured, ATP 1 uM
Method: as §2, §3

human CTLA4 [31] = biological target: T9, human CTLA4; experiment: SPR Biacore T200, 37C, antibody captured, ATP 1 uM; remark: listed apart in the source
Method: as §2, §3

T3 sequence (P08637 17-208): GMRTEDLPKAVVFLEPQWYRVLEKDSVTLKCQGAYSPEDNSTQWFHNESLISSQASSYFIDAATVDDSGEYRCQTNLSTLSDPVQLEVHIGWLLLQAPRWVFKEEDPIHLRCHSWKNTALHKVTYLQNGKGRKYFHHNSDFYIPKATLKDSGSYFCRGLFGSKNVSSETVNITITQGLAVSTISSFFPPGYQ
T10 sequence (chain, as listed by the source limits assumed): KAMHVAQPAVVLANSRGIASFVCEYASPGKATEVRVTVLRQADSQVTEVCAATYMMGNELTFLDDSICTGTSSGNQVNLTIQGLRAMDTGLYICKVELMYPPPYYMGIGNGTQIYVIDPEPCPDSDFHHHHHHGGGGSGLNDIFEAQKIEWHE
T6 sequence (P02745 23-245 limits assumed, chain 1 of 3): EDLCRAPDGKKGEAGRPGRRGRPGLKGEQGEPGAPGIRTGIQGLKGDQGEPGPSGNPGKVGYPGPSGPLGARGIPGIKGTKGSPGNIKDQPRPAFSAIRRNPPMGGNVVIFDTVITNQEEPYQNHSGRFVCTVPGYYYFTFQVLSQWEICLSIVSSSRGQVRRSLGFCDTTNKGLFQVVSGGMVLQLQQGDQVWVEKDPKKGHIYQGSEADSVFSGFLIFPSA
T6 sequence (P02746 28-253 limits assumed, chain 2 of 3): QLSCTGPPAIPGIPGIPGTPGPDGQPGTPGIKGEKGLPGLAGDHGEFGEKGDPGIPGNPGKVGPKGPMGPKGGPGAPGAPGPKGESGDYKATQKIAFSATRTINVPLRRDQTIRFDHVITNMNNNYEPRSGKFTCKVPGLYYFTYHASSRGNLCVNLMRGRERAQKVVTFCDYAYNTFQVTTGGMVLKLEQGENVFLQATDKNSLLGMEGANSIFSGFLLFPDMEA
T6 sequence (P02747 29-245 limits assumed, chain 3 of 3): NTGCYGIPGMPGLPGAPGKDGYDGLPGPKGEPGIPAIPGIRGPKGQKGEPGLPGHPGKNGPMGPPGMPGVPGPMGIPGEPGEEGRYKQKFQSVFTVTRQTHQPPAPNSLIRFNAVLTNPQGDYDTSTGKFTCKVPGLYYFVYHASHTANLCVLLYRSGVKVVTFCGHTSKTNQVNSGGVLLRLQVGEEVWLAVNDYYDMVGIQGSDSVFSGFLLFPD
T5 sequence (P08637 17-208 F176V limits assumed): as the sequence (P08637 17-208) above, with F160V counted along it
T9 sequence (chain, as listed by the source limits assumed): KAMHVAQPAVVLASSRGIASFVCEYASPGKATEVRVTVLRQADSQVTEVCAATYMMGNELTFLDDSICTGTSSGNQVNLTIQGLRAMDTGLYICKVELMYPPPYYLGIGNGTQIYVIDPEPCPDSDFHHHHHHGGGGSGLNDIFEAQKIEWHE
T4 sequence (P12314 16-292): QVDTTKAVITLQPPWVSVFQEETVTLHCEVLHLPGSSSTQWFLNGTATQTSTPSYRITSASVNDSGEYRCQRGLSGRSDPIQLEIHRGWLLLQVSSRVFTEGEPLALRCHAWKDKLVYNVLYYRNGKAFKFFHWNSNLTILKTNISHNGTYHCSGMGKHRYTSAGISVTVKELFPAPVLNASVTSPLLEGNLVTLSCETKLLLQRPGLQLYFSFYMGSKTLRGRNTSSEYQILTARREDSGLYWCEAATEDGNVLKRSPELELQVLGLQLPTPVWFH
Sequence of hFcγRIIIaV on hFcγRIIIaV-expressing Jurkat cells (P08637 17-254, form in doubt): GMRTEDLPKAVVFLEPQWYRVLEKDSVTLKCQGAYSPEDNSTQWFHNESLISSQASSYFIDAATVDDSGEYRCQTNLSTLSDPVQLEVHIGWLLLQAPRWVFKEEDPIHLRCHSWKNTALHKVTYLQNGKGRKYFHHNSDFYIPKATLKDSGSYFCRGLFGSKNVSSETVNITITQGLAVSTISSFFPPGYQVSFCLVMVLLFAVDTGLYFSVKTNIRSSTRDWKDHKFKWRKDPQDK

Kd [1]: 121 nM
Kd [2]: 35 nM
Kd [3]: 16 nM
Kd [4]: 0.172 nM
Kd [5]: 3.16 nM
binding result [6]: binds
EC50 value (hFcγRIIaH ADCP Reporter Bioassay, Hepa1-6/hEREG target cells) [7]: 0.0158 µg/mL
A/I ratio (KD for FcγRIIb divided by KD for each FcγR) [8]: 52.4
A/I ratio (KD for FcγRIIb divided by KD for each FcγR) [9]: 181
A/I ratio (KD for FcγRIIb divided by KD for each FcγR) [10]: 396
A/I ratio (KD for FcγRIIb divided by KD for each FcγR) [11]: 2000
Relative value to KD between G1d and hFcgRs [12]: 1.6
Relative value to KD between G1d and hFcgRs [13]: 13.7
Relative value to KD between G1d and hFcgRs [14]: 32.1
Relative value to KD between G1d and hFcgRs [15]: 185
Relative value to KD between G1d and hFcgRs [16]: 0.5
Relative value to KD between G1d and hFcgRs [17]: 114
Kd [18]: 6330 nM
EC50 value (hFcγRIIIaV ADCC Reporter Bioassay, Hepa1-6/hEREG target cells) [19]: 0.00153 µg/mL
B1: H240-Kn443/L73-k0//H240-Hl408/L73-k0 (antibody, human IgG1, kappa)
heavy 1: QDQLVQSGAEVKKPGASVKVSCKASGFNIKDTYIQWVRQAPGQGLEWMGRIDPLRKQTKYREKFEGRVTITADTSTNTAYMELSSLRSEDTAVYYCVRSGREFDYWGQGTLVTVSSASTKGPSVFPLAPSSKSTSGGTAALGCLVKDYFPEPVTVSWNSGALTSGVHTFPAVLQSSGLYSLSSVVTVPSSSLGTQTYICNVNHKPSNTKVDKKVEPKSCDKTHTCPPCPAPEFQWGPMVFLFPPKPKDTLMISRTPEVTCVVVDVSDEEPEVKFNWYVDGVEVHNAKTKPREEQYNATYRVVSVLTVLHQDWLNGKEYKCKVSNDALPAPIEKTISKAKGQPREPQVCTLPPSRDELTKNQVSLWCLVKGFYPSDIAVEWESNGQPENNYKTTPPVLDSDGSFFLYSKLTVDKSRWQQGNVFSCSVMHEALHNHYTQKSLSLSP
heavy 2: QDQLVQSGAEVKKPGASVKVSCKASGFNIKDTYIQWVRQAPGQGLEWMGRIDPLRKQTKYREKFEGRVTITADTSTNTAYMELSSLRSEDTAVYYCVRSGREFDYWGQGTLVTVSSASTKGPSVFPLAPSSKSTSGGTAALGCLVKDYFPEPVTVSWNSGALTSGVHTFPAVLQSSGLYSLSSVVTVPSSSLGTQTYICNVNHKPSNTKVDKKVEPKSCDKTHTCPPCPAPELLAGPSVFLFPPKPKDTLMISRTPEVTCVVVDVSHEEPEVKFNWYVDGVEVHNAKTKPREEQYNATYRVVSVLTVLHQDWLNGKEYKCKVSNDALPAPIEETISKAKGQPREPQVYTLPPSRCELTKNQVSLSCAVKGFYPSDIAVEWESNGQPENNYKTTPPVLDSDGSFFLVSKLTVDKSRWQQGNVFSCSVMHEALHNHYTQKSLSLSP
light: DIQMTQSPSSLSASVGDRVTITCRASQDIHKYIAWYQQKPGQAPRLLIQYTSTLQPGVPSRFSGSGSGTDYTFTISSLQPEDIATYYCLQYEQLRTFGGGTKVEIKRTVAAPSVFIFPPSDEQLKSGTASVVCLLNNFYPREAKVQWKVDNALQSGNSQESVTEQDSKDSTYSLSSTLTLSKADYEKHKVYACEVTHQGLSSPVTKSFNRGEC
notes: also called EGL-ART3; ART3

Kd [1]: 1660 nM
Kd [2]: 1120 nM
Kd [3]: 2960 nM
Kd [4]: 0.0901 nM
Kd [5]: 358 nM
binding result [6]: binds
A/I ratio (KD for FcγRIIb divided by KD for each FcγR) [8]: 6.1
A/I ratio (KD for FcγRIIb divided by KD for each FcγR) [9]: 8.9
A/I ratio (KD for FcγRIIb divided by KD for each FcγR) [10]: 3.4
A/I ratio (KD for FcγRIIb divided by KD for each FcγR) [11]: 28.1
Relative value to KD between G1d and hFcgRs [12]: 1
Relative value to KD between G1d and hFcgRs [13]: 1
Relative value to KD between G1d and hFcgRs [14]: 1
Relative value to KD between G1d and hFcgRs [15]: 1
Relative value to KD between G1d and hFcgRs [16]: 1
Relative value to KD between G1d and hFcgRs [17]: 1
Kd [18]: 10100 nM
EC50 value (hFcγRIIIaV ADCC Reporter Bioassay, Hepa1-6/hEREG target cells) [19]: 0.0463 µg/mL
B2: H240-G1d/L73-k0 (antibody, human IgG1, kappa)
heavy: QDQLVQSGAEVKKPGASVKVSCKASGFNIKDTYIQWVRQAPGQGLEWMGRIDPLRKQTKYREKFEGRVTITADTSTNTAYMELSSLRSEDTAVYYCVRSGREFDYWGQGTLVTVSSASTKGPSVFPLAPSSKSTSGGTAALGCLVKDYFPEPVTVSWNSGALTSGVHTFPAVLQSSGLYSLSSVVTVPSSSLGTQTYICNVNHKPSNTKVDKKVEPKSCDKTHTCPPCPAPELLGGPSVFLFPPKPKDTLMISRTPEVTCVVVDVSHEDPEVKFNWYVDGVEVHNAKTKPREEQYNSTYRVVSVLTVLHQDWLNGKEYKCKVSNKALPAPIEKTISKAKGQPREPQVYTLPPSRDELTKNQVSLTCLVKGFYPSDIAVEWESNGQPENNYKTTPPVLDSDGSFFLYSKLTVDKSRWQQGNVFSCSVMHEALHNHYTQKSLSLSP
light: B1 light
notes: Anti-human Epiregulin antibody with the human IgG1 constant region G1d (C-terminal Gly and Lys deleted); also called EGL-G1d

binding result [6]: no binding (tested: 30 µg/mL)
B3: EGL-G4d (antibody, human IgG4 S228P, kappa)
heavy: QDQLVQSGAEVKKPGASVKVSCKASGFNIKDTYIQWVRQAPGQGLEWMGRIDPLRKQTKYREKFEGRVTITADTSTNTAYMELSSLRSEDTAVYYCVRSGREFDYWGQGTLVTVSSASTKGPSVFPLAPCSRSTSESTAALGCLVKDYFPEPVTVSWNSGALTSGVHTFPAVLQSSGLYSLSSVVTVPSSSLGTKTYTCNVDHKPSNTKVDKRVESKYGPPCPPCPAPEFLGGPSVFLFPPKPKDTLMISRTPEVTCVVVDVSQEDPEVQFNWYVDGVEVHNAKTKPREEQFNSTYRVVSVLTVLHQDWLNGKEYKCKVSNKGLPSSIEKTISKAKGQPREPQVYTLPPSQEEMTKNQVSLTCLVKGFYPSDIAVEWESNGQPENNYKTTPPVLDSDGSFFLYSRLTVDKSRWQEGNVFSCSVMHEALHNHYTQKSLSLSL
light: B1 light

Kd (human CTLA4 [20]): 7600 nM
Kd (human CTLA4 [21]): 130 nM
koff (human CTLA4 [21]): 0.02 s⁻¹
kon (human CTLA4 [21]): 150000 M⁻¹ s⁻¹
Kd [22]: 41 nM
Kd (human CTLA4 [23]): 25 nM
Kd (human CTLA4 [24]): 32 nM
Kd [25]: 16 nM
Kd (human CTLA4 [26]): 7.8 nM
Kd (human CTLA4 [27]): 160 nM
Kd (human CTLA4 [28]): 26 nM
koff (human CTLA4 [28]): 0.0029 s⁻¹
kon (human CTLA4 [28]): 110000 M⁻¹ s⁻¹
Kd (human CTLA4 [29]): 42 nM
koff (human CTLA4 [29]): 0.0064 s⁻¹
kon (human CTLA4 [29]): 150000 M⁻¹ s⁻¹
Kd [30]: 160 nM
Kd (human CTLA4 [31]): 95 nM
B4: 04H1656-G1m/04L1612-lam1 (antibody, human IgG1, lambda)
heavy: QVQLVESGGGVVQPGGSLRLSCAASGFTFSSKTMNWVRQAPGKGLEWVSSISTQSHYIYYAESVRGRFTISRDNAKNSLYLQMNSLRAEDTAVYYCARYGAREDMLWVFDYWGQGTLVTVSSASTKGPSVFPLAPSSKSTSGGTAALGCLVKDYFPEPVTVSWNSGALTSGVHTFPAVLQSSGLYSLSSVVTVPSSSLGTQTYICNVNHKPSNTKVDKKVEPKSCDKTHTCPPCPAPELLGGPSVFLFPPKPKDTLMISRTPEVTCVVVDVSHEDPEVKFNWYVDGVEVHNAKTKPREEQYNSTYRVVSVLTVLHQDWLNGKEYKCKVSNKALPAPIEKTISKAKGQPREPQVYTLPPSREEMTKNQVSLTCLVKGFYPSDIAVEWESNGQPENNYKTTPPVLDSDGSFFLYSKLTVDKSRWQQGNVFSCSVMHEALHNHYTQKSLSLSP
light: QSALTQPPSASGSPGQSVTISCEGPSTGVGDYTYVHWYQQHPGKAPKLMIYFTSKKPSGVPDRFSGSKSGNTASLTVSGLQAEDEADYYCQTYAAPLGPMFGGGTKLTVLGQPKAAPSVTLFPPSSEELQANKATLVCLISDFYPGAVTVAWKADSSPVKAGVETTTPSKQSNNKYAASSYLSLTPEQWKSHRSYSCQVTHEGSTVEKTVAPTECS
